This is an account of results in doi:10.1101/2022.10.14.512051 (bioRxiv, 2022).

Experiment [1] has as its target His-DDB1 (recombinant) (human, UniProt Q16531 1-1140). The experiment is described as follows: fluorescence polarisation.
In experiment [2] the target is CRL4A complex (CUL4A, DDB1, RBX1) (human | , UniProt Q13619 1-759; Q16531 1-1140; P62877 1-108). The experiment is described as follows: fluorescence polarisation.
Chain of CRL4A complex (CUL4A, DDB1, RBX1) (Q13619 whole entry, chain 1 of 3): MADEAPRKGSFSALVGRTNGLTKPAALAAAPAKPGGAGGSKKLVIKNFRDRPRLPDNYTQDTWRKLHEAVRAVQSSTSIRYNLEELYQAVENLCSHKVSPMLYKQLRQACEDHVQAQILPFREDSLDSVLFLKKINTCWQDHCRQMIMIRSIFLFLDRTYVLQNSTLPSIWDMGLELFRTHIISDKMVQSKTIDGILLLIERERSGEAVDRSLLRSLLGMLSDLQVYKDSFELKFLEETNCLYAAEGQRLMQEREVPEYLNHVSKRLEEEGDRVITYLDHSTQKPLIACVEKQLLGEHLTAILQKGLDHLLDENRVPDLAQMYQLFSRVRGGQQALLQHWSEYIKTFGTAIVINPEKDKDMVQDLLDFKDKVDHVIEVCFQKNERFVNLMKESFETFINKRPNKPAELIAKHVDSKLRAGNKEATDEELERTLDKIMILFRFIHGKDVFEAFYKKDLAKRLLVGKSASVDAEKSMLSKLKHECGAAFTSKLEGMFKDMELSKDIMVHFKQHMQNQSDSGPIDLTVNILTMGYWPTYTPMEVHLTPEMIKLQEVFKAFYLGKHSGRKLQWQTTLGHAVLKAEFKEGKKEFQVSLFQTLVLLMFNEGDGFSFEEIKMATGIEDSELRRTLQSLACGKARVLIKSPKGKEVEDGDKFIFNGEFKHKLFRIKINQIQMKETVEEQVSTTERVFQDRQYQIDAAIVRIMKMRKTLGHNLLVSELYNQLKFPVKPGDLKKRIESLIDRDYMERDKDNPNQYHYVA
Chain of CRL4A complex (CUL4A, DDB1, RBX1) (Q16531 whole entry, chain 2 of 3): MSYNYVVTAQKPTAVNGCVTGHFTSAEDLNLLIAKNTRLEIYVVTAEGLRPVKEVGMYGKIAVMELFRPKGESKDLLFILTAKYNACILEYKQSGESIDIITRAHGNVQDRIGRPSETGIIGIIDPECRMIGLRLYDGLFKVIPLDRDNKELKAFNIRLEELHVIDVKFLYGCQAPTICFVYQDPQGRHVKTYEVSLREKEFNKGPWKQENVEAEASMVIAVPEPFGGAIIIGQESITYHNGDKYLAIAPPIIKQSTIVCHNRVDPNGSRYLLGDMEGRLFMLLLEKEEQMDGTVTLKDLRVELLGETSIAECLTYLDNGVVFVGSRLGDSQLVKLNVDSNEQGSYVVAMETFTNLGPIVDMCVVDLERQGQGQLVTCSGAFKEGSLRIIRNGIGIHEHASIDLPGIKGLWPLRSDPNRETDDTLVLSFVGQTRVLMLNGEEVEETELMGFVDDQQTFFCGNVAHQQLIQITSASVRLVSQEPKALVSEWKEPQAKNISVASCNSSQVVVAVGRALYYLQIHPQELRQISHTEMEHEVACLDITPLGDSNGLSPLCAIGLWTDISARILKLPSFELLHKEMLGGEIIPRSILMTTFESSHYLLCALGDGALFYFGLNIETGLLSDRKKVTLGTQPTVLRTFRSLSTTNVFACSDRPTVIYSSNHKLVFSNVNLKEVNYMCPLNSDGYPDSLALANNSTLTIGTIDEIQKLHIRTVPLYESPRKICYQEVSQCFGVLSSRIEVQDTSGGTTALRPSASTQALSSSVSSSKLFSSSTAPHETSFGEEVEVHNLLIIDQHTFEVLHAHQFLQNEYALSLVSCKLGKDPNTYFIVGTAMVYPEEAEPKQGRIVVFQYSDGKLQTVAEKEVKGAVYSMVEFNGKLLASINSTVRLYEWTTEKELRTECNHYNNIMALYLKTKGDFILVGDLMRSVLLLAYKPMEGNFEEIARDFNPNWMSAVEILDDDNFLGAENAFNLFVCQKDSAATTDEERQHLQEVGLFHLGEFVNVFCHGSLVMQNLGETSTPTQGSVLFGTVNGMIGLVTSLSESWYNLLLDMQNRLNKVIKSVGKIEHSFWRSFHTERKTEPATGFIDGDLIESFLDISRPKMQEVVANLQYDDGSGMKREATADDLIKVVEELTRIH
Chain of CRL4A complex (CUL4A, DDB1, RBX1) (P62877 whole entry, chain 3 of 3): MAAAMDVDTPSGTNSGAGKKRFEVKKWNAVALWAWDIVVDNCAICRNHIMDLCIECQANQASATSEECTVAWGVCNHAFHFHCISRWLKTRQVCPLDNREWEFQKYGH

Chain of His-DDB1 (recombinant) (Q16531 whole entry): as the sequence (Q16531 whole entry, chain 2 of 3) above

B1: Alexa-labeled LIS1 (biotinylated StrepII-Avi-LIS1 with Alexa488-coupled streptavidin) (natural protein, human, UniProt P43034 1-410, looked up)
chain: MVLSQRQRDELNRAIADYLRSNGYEEAYSVFKKEAELDVNEELDKKYAGLLEKKWTSVIRLQKKVMELESKLNEAKEEFTSGGPLGQKRDPKEWIPRPPEKYALSGHRSPVTRVIFHPVFSVMVSASEDATIKVWDYETGDFERTLKGHTDSVQDISFDHSGKLLASCSADMTIKLWDFQGFECIRTMHGHDHNVSSVAIMPNGDHIVSASRDKTIKMWEVQTGYCVKTFTGHREWVRMVRPNQDGTLIASCSNDQTVRVWVVATKECKAELREHEHVVECISWAPESSYSSISEATGSETKKSGKPGPFLLSGSRDKTIKMWDVSTGMCLMTLVGHDNWVRGVLFHSGGKFILSCADDKTLRVWDYKNKRCMKTLNAHEHFVTSLDFHKTAPYVVTGSVDQTVKVWECR
modifications: biotin on the Avi tag
For B1, the Kd in experiment [1] was approximately 5 µM; in experiment [2] it was approximately 13 µM.

B2: Alexa-labeled WDR1 (biotinylated StrepII-Avi-WDR1 with Alexa488-coupled streptavidin) (natural protein, human, UniProt O75083 1-606, looked up)
chain: MPYEIKKVFASLPQVERGVSKIIGGDPKGNNFLYTNGKCVILRNIDNPALADIYTEHAHQVVVAKYAPSGFYIASGDVSGKLRIWDTTQKEHLLKYEYQPFAGKIKDIAWTEDSKRIAVVGEGREKFGAVFLWDSGSSVGEITGHNKVINSVDIKQSRPYRLATGSDDNCAAFFEGPPFKFKFTIGDHSRFVNCVRFSPDGNRFATASADGQIYIYDGKTGEKVCALGGSKAHDGGIYAISWSPDSTHLLSASGDKTSKIWDVSVNSVVSTFPMGSTVLDQQLGCLWQKDHLLSVSLSGYINYLDRNNPSKPLHVIKGHSKSIQCLTVHKNGGKSYIYSGSHDGHINYWDSETGENDSFAGKGHTNQVSRMTVDESGQLISCSMDDTVRYTSLMLRDYSGQGVVKLDVQPKCVAVGPGGYAVVVCIGQIVLLKDQRKCFSIDNPGYEPEVVAVHPGGDTVAIGGVDGNVRLYSILGTTLKDEGKLLEAKGPVTDVAYSHDGAFLAVCDASKVVTVFSVADGYSENNVFYGHHAKIVCLAWSPDNEHFASGGMDMMVYVWTLSDPETRVKIQDAHRLHHVSSLAWLDEHTLVTTSHDASVKEWTITY
modifications: biotin on the Avi tag
In the case of B2, the Kd in experiment [1] is approximately 5 µM; in experiment [2] it was approximately 13 µM.
